Assay results: patent US11890352B2, “Plectin-targeted liposomes/PARP inhibitor in the treatment of cancer” (University of Virginia Patent Foundation, priority 2018, dated 2024)
Where no end group is shown, it is not given here. Side-chain parts run from the residue outwards. The star is where a group is joined. DSPE = CCCCCCCCCCCCCCCCCC(=O)OC[C@H](COP(=O)(O)OCCN*)OC(=O)CCCCCCCCCCCCCCCCC; FAM = 5(6)-carboxyfluorescein

Columns and labels:
[1] = unlabeled liposomes; cited from earlier work
pancreatic cancer = conditions: clinical study; cited from earlier work
[2] = cited from earlier work
[3] = target: T1, cell surface plectin on ovarian cancer cells (SKOV3, OVCAR8) (human, UniProt Q15149 1-4684); assay: cell binding assay on SKOV3 cells; DiR fluorescence; NCP and no-peptide liposome binding subtracted; SKOV3 cells
T1 construct: whole, on cells; Endogenous plectin mislocalized to the cell surface; also called Plectin-1
T1 sequence (Q15149 whole entry): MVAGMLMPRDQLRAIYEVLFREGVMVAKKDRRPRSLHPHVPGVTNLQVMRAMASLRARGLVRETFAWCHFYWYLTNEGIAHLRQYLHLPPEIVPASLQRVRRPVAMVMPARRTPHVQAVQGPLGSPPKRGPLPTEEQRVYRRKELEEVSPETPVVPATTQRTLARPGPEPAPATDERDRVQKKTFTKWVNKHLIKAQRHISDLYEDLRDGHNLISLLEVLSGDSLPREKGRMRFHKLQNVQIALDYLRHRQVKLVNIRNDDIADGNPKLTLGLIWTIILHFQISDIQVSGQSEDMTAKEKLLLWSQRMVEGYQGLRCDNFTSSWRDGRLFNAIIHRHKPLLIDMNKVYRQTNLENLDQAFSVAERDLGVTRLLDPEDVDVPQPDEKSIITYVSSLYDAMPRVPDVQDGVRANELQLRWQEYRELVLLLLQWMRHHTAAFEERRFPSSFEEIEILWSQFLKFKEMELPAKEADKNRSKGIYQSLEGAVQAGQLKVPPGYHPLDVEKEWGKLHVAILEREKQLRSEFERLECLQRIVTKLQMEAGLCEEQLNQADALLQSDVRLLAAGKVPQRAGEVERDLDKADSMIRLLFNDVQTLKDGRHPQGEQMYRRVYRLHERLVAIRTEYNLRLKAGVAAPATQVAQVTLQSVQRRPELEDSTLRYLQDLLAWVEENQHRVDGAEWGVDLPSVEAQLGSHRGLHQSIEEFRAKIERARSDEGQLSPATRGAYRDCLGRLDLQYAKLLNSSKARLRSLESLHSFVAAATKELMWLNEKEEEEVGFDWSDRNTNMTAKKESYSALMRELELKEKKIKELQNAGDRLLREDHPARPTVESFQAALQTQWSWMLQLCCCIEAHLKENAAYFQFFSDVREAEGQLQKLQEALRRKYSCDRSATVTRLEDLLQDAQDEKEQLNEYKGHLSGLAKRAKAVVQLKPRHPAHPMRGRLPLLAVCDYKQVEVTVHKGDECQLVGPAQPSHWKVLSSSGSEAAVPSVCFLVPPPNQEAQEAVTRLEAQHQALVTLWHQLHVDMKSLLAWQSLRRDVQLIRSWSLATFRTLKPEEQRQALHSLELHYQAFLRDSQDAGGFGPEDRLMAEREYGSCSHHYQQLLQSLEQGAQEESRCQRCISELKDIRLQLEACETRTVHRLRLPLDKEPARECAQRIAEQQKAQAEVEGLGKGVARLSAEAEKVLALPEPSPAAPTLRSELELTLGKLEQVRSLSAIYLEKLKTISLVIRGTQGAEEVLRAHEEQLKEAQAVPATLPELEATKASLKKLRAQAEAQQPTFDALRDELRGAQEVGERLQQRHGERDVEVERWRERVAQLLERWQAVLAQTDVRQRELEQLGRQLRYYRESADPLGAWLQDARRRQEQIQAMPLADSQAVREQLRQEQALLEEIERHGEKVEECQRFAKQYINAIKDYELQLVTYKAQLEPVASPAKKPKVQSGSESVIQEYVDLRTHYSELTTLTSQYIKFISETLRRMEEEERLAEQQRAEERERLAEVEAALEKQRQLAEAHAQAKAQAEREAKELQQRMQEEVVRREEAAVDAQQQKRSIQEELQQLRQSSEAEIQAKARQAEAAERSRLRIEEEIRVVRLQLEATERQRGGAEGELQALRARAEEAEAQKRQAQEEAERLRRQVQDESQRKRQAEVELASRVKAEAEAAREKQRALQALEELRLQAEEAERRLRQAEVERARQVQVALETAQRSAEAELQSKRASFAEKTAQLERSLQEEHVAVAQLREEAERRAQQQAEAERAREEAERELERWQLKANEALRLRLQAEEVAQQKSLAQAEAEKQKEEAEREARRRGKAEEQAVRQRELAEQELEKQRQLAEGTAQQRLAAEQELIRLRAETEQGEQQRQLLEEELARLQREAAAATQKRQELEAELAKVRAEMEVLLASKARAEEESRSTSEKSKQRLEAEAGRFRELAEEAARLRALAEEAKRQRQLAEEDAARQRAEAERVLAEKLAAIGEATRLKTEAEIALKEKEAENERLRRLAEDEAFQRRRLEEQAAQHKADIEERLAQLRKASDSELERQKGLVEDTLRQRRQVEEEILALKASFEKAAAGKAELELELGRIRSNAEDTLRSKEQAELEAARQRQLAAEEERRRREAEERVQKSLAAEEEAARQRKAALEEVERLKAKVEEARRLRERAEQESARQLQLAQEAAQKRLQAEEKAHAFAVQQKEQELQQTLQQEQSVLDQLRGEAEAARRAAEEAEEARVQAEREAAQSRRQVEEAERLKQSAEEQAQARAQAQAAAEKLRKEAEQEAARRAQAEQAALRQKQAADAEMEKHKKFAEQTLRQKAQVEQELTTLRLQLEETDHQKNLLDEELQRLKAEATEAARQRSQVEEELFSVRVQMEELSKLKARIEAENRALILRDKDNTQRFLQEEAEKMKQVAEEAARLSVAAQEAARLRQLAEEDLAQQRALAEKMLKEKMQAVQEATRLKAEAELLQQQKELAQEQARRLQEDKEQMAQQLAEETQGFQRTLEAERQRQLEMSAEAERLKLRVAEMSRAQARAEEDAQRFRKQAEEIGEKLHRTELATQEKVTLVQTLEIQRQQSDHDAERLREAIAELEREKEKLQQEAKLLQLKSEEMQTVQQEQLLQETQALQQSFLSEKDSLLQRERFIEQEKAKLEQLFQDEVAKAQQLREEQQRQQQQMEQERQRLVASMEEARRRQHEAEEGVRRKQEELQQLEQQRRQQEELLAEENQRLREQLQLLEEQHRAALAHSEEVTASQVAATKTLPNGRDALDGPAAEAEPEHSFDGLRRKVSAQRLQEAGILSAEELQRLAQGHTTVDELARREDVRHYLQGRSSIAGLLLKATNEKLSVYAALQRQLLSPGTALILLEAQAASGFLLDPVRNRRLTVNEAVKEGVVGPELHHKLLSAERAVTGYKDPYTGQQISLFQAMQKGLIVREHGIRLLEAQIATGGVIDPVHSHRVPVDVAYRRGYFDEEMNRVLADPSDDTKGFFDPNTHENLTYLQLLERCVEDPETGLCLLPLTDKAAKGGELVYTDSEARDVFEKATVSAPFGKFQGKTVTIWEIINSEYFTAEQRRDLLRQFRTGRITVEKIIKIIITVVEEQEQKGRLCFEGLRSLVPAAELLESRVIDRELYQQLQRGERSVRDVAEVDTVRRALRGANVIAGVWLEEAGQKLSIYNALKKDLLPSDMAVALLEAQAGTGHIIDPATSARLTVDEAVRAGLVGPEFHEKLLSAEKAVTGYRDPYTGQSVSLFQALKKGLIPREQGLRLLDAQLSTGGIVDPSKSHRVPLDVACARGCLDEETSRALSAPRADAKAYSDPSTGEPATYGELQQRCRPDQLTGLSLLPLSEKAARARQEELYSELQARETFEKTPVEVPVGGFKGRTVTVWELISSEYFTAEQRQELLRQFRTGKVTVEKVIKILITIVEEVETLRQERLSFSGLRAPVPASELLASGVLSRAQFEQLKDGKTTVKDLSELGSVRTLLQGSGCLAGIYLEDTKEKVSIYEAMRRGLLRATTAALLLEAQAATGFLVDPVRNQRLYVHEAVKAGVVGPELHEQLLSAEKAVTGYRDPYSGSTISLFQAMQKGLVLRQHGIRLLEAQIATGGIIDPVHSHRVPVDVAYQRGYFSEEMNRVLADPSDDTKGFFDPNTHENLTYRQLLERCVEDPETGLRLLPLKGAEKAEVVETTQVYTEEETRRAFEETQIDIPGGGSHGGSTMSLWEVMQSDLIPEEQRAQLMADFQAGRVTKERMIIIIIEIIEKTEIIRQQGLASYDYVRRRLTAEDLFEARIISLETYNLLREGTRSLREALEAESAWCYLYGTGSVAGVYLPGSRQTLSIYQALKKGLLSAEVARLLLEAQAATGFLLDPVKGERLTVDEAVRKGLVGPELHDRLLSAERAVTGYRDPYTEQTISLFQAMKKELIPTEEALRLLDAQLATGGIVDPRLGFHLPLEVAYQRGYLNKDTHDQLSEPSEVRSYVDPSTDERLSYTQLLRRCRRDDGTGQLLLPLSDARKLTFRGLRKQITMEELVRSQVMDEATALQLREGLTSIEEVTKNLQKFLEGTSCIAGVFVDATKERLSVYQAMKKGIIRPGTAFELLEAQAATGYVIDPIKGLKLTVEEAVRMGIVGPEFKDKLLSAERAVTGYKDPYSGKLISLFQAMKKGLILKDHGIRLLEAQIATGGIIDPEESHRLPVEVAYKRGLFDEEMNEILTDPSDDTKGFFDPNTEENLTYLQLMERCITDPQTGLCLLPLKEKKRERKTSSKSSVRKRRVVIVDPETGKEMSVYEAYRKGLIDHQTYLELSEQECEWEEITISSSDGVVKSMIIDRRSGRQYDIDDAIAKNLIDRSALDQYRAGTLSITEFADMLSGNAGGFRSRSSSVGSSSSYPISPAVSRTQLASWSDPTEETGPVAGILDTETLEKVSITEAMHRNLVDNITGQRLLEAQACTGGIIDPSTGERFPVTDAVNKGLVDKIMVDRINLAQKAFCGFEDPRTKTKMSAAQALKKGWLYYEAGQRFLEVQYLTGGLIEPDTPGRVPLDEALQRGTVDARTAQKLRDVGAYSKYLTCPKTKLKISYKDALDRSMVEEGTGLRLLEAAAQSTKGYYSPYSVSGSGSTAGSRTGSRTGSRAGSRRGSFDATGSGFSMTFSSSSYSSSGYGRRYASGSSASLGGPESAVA
Experimental: (§1) FT 132, SKOV3 and OVCAR8 cells were plated in triplicate in a 96 well black plate at a concentration of 5000 cells per well. After 48 h, liposomes at concentrations ranging from […] were incubated with the three cell lines after washing the wells with PBS buffer for 1 h at 37° C. The cells were later washed with PBS and liposomal DiR intensity was measured using a fluorescent plate reader (FLUOstar omega, BMG Labtech Inc. Cary, NC). PTP liposomal binding to the three cell lines was compared with liposomes containing no peptide (background binding) and with NCP (non-specific binding). Background binding by the no peptide liposomes was subtracted from both the non-specific (NCP) and PTP liposomes. To obtain specific binding of PTP liposomes, we subtracted non-specific (NCP) binding from the total binding by the PTP liposomes.
(§2) Figure 2B: Figure 3A: FIGS. 3A-C. PTP liposomes bind to SKOV3 and OVCAR8 cells. Cell binding assay (ELISA) was carried out to assess PTP liposome association to cell surface plectin on SKOV3 and OVCAR8 cells. Liposomes (No Pep, NCP and PTP) at varying concentrations were incubated with FT132, SKOV3 and OVCAR8 cells for 1 h at 37° C. […] NCP binding was subtracted from PTP liposomes to determine specific binding of PTP liposomes to A) FT132, B) SKOV3 and C) OVCAR8 cells for 1 h at 37° C. followed by quantification of DiR using fluorescent plate reader.

[4] = target: T1, cell surface plectin on ovarian cancer …; assay: cell binding assay on OVCAR8 cells; DiR fluorescence; NCP and no-peptide liposome binding subtracted; OVCAR8 cells
Experimental: as §1, §2

[5] = target: T1, cell surface plectin on ovarian cancer …; assay: cell binding assay on FT132 cells (healthy fallopian tube cells), DiR fluorescence at 780 nm, 1 h at 37 C; fit of the SPECIFIC curve; no unit beside the number, concentration axis in nM
Experimental: as §1, §2

[6] = target: T1, cell surface plectin on ovarian cancer …; assay: cell binding assay on FT132 cells (healthy fallopian tube cells), DiR fluorescence at 780 nm, 1 h at 37 C
Experimental: as §1, §2

[7] = target: T2, recombinant his-tagged C-terminus fragment of plectin (4379-4684 aa) (human, UniProt Q15149 4379-4684); assay: BLI (ForteBio Octet), his-tagged plectin C-terminus fragment loaded on anti-His sensors, liposomes in solution
T2 construct: range 4379-4684; also called his-tagged plectin fragment; c-terminus fragment of plectin (4379-4384 aa); not shown: his tag
T2 sequence (looked up): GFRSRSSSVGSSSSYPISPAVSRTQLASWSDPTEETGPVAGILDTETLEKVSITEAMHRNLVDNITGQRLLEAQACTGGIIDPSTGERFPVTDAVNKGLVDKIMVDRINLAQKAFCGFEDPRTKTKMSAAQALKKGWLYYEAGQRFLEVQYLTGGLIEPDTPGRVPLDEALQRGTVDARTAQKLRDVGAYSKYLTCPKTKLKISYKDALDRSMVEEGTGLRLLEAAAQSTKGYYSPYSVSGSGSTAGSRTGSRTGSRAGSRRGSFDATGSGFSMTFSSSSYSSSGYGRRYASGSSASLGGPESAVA
Experimental: Biolayer Interferometry (BLI) to Study PTP-Liposomes Binding to C-Terminus Fragment of Plectin Biolayer interferometry (BLI) was performed using ForteBio octect Red 96 system (ForteBio, Menlo Park, CA), we used recombinant C-terminus fragment of plectin (4379-4684 aa). All BLI assays were performed in black 96 well plates (Nunc F96 Micro Well plates, Thermo Fisher, Waltham, MA). The total working volume for samples or buffer was 0.2 mL per well and the rpm setting for each equilibration and loading steps was set at 1000 rpm. The association and dissociation step with C-terminus fragment of plectin and peptide-liposomes was carried out at 600 rpm. Prior to each assay, anti-his biosensor tips were pre-wetted in 0.2 mL PBS for at least 10 min followed by equilibrium with PBS for 100 seconds. Anti-his biosensors were then non-covalently loaded with his-tagged C-terminus fragment ([…]) (100 sec). Subsequently, association with No peptide, NCP (Negative Control Peptide) and PTP liposomes (40 mM) (300 sec) was be carried out. Finally, the dissociation was monitored in PBS for 600 sec.
Figure 2A: FIGS. 2A-B described plectin-targeted peptide (PTP) liposomes binding to Plectin. A) PTP peptide was conjugated to DSPE-PEG-MALEIMIDE via the thiol present on the C-terminus of the peptide. […]

COc1cccc2c1C(=O)c1c(O)c3c(c(O)c1C2=O)C[C@@](O)(C(=O)CO)C[C@@H]3O[C@H]1C[C@H](N)[C@H](O)[C@H](C)O1 [doxorubicin]
drug loading previously reported [1]: 200 μg drug per mg of lipid

CNCc1ccc(-c2[nH]c3cc(F)cc4c3c2CCNC4=O)cc1 [Rucaparib]
patients showing benefit (pancreatic cancer): 36%

O=C(c1cc(Cc2n[nH]c(=O)c3ccccc23)ccc1F)N1CCN(C(=O)C2CC2)CC1 [Olaparib]
patients who developed myelodysplastic syndrome and acute myeloid leukemia [2]: About 2% | patients with adverse side effects (neutropenia, thrombocytopenia) ([2]; doses necessary to achieve PARP inhibition): About 10%

B1: PTP liposomes (Plectin Targeting Peptide KTLLPTPGGSK(FAM)C conjugated to DSPE-PEG3400-Maleimide and displayed on DOPC/cholesterol/DSPE-PEG2000/DiR liposomes) (peptide)
peptide: KTLLPTPGGSK(FAM)C([maleimide-PEG3400-DSPE])-NH2
modifications: also: displayed on liposomes
notes: Tested only as a multivalent display on liposomes (about 110-120 nm), not as free peptide; also called Plectin Targeted Peptide; PTP-PEG3400-DSPE
Kd [3]: 120 pM | Kd [4]: 110 pM | Kd [5]: 60 pM

B2: NCP liposomes (Negative Control Peptide TALPRLNGGSK(FAM)C conjugated to DSPE-PEG3400-Maleimide and displayed on liposomes) (peptide)
peptide: TALPRLNGGSK(FAM)C([maleimide-PEG3400-DSPE])-NH2
modifications: also: displayed on liposomes
notes: Control peptide, tested only as a display on liposomes
binding result [6]: no binding (tested: 0.3 nM) | binding result [7]: no binding
